The results in this text go back to patent US20220025050A1 (OSE IMMUNOTHERAPEUTICS, published 2022).

Experiment [1] has as its target T1, biotinylated Human PD1 (AcroBiosystems, reference EP-101) (human, UniProt Q15116 25-167, limits assumed, biotinylated).
T1 construct: also called biotinylated recombinant human PD-1; recombinant biotinylated PD1 protein
Kind of experiment: competition ELISA: PD-L2 Fc immobilised, biotinylated PD-1 mixed with the fusion at varied concentration, streptavidin-peroxidase; blocked ligand PD-L2 [following]. The procedure:
(§1) FIG. 8: Competition PD-1/PD-L1 or PD-L2 ELISA assay. […] (D): PD-1/PD-L2 antagonist activity. […] Similar protocol as PD-L1/PD-1 assay was used for revelation. In this experiment, the bifunctional molecule comprises a humanized anti-PD1 antibody having a heavy chain variable domain as disclosed in SEQ ID NO: 24 and a light chain variable domain as disclosed in SEQ ID NO:28.
(§2) Competitive ELISA assay was performed by PD-1:PD-L1 Inhibitor Screening ELISA Assay Pair (AcroBiosystems; USA; reference EP-101). In this assay, recombinant hPDL1 was immobilized on plastic at 2 μg/ml in PBS pH 7.4 buffer. […] Same ELISA protocol was performed to assess PDL2/PD1 antagonist activity by coating PD-L2 Fc recombinant protein (Sinobiological, #10292-H02H).
On the technique in general: ELISA stands for enzyme-linked immunosorbent assay.

The target of experiment [2] is T1, biotinylated Human PD1 (AcroBiosystems, …). Kind of experiment: competition ELISA: PD-L1 immobilized, biotinylated PD-1 at fixed concentration, antibody varied. On the procedure:
as §1, §2

The target of experiment [3] is T2, recombinant hPD1 (Sino Biologicals, reference 10377-H08H) (human, UniProt Q15116 25-167).
T2 construct: also called Human recombinant PD-1 protein; PD1-His recombinant protein
T2 sequence (Q15116 25-167 limits assumed): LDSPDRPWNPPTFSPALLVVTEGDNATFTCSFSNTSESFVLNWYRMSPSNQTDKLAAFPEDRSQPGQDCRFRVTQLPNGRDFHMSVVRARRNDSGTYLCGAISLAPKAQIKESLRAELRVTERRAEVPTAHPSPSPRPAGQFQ
As to the kind of experiment: ELISA: hPD-1 immobilized, anti-human Fc peroxidase.

Positions count from the first letter of the chain named.

T1 sequence (Q15116 25-167 limits assumed): as above

B1: Humanized anti-PD1 (VH SEQ ID NO:24, VL SEQ ID NO:28) VH fusion to Cytokine-protein A (IL-7) (other, not shown: small tags and cut ends)
heavy: QIQLVQSGSELKKPGASVKVSCKASGYTFTHYAMNWVRQAPGQGLEWMGWINTNTGEPTYAQGFTGRFVFSLDTSVSTAYLQISSLKAEDTAVYYCAREREPGMDNWGQGTLVTVSS
VL: DVVMTQSPLSLPVTLGQPASISCRSSQSLVHANTNTYLEWYQQRPGQSPRLLIYKVSNRFSGVPDRFSGSGSGTDFTLKISRVEAEDVGVYYCFQGTHVPNTFGQGTKLEIK
notes: Bifunctional molecule; also called Anti-PD1 fused to Cytokine-protein A (IL-7), VH fusion; anti PD-1 VH IL-7
For B1, the “IC50 (read off the curve)” value in experiment [1] is about 0.7 µg/mL.

B2: Anti-PD1 Ab alone, no fusion (FIG. 8 / Table 5) (antibody, V domains shown)
VH: B1 heavy
VL: B1 VL
notes: also called anti-PD1 antibody alone
Consider B2, for which the IC50 (as a rule, the midpoint of a concentration-inhibition curve) in experiment [2] is 0.184 µg/mL.

B3: Humanized anti-PD1 (VH SEQ ID NO:24, VL SEQ ID NO:28) VH fusion to CD80 (other, not shown: small tags and cut ends)
heavy: B1 heavy
VL: B1 VL
notes: Bifunctional molecule; also called anti PD-1 VH CD80
With B3, the “IC50 (read off the curve)” value in experiment [1] is about 0.9 µg/mL.

B4: Anti-PD1 Ab alone, no fusion, FIG. 4 / Table 1 (antibody, V domains shown)
VH: B1 heavy with N106T
VL: DVVMTQSPLSLPVTLGQPASISCRSSQSLVHANTNTYLEWYQQRPGQSPRLLIYKVSNRFSGVPDRFSGSGSGTDFTLKISRVEAEDVGVYYCFQGTHVPNTFGQGTKLEIKR
B4: the EC50 (as a rule, the midpoint of the concentration-response curve) in experiment [3] is 0.00167 µg/mL.
